Data: patent US20190330362A1 (GOVERNING COUNCIL OF THE UNIVERSITY OF TORONTO, published 2019)

T1: human CD133 (GenBank Accession O43490) (human, UniProt O43490 20-865)
T1 construct: Full-length human CD133 overexpressed in HEK293-CD133 cells, or endogenous on Caco-2, HPAC, PL45, RWP-1 and GBM cells; In the Western blots the same protein is denatured in whole cell lysate; also called Prominin-1; cell surface CD133
T1 sequence: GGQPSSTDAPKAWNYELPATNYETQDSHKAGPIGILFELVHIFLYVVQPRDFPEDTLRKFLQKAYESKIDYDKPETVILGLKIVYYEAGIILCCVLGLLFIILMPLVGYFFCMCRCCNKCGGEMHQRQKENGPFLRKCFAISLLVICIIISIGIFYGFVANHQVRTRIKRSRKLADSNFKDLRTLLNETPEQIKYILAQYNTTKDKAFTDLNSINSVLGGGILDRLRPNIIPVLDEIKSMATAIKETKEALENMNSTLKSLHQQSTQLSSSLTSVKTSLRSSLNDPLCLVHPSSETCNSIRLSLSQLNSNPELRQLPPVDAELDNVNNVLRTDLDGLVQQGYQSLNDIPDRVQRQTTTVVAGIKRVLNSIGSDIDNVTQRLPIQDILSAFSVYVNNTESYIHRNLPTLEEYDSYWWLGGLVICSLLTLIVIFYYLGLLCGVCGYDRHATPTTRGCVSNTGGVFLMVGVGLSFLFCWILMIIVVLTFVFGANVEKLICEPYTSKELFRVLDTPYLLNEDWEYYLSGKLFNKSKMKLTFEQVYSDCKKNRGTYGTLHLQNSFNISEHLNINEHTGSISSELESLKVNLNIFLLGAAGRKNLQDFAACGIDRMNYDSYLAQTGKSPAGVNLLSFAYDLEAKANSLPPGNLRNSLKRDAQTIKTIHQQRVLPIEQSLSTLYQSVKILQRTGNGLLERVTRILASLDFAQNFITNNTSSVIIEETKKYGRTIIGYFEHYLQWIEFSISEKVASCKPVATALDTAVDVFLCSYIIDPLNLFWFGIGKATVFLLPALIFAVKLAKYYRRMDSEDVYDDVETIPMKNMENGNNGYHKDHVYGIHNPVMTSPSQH

B1: IgG RW03 (antibody, V domains shown)
VH: EVQLVESGGGLVQPGGSLRLSCAASGFNLSSSSIHWVRQAPGKGLEWVAYIYPYYSYTYYADSVKGRFTISADTSKNTAYLQMNSLRAEDTAVYYCARFGSVAGFDYWGQGTLVTVSS
VL: DIQMTQSPSSLSASVGDRVTITCRASQSVSSAVAWYQQKPGKAPKLLIYSASSLYSGVPSRFSGSRSGTDFTLTISSLQPEDFATYYCQQYSHAGHLFTFGQGTKVEIKR
notes: Human IgG1 (hG1) with kappa light chain (hK); variable region of Fab RW03 (Library F); also called RW03 IgG; lIgG RW03
B2: phage-Fab RW03 (Fab, V domains shown)
VH: B1 VH
VL: DIQMTQSPSSLSASVGDRVTITCRASQSVSSAVAWYQQKPGKAPKLLIYSASSLYSGVPSRFSGSRSGTDFTLTISSLQPEDFATYYCQQYSHAGHLFTFGQGTKVEIK
notes: also called phage-Fab clone RW03; RW03 clone
B3: IgG RW01 (antibody, V domains shown)
VH: EVQLVESGGGLVQPGGSLRLSCAASGFNIYYYGSMHWVRQAPGKGLEWVASISPYYGSTYYADSVKGRFTISADTSKNTAYLQMNSLRAEDTAVYYCARHASSGYGHYAVYGIDYWGQGTLVTVSS
VL: DIQMTQSPSSLSASVGDRVTITCRASQGSSYVAWYQQKPGKAPKLLIYSASYLYSGVPSRFSGSRSGTDFTLTISSLQPEDFATYYCQQGVWSLITFGQGTKVEIKR
notes: also called RW01 IgG; lIgG RW01

Tests used:
[1] = molecular target: T1, human CD133 (GenBank Accession O43490); experiment: competitive flow cytometry on CD133-expressing cells first incubated with 25 nM Fab RW01, secondary antibody against human Fc
[2] = molecular target: T1, human CD133 (GenBank Accession O43490); experiment: flow cytometry on CD133-expressing cells (cell line not given), IgG alone, secondary antibody against human Fc
[3] = molecular target: T1, human CD133 (GenBank Accession O43490); experiment: flow cytometry, serial dilutions on HEK293-CD133 cells, anti-human Fab'2 secondary antibody
[4] = molecular target: T1, human CD133 (GenBank Accession O43490); experiment: cell-based phage ELISA (OD450)
Description: Following cell selections, round four output phage for each library was plated for single colonies. These colonies were grown up in an overnight culture and tested for binding to cells by cell-based ELISA. The plates were read and OD450 nm was detected and recorded. The assay measured binding of clones to CD133-overexpressing HEK293-CD133 cells (under “CD133” column headers) vs parental HEK293 cells (under “HEK293” column headers).
After four rounds of positive and negative selection, serial dilutions were made of the round four output phage (10E-1 to 10E-3) for each library and used to infect XL1-blue cells. The infected cells were plated for isolating single colonies to be used in a clonal cell-based ELISA for isolating CD133-specific binders.

Binder | EC50 (read off the curve) [1] [nM] | EC50 (read off the curve) [2] [nM] | EC50 [3] [nM] | fold binding to HEK293-CD133 cells vs HEK293 cells [4] [fold]
B1 | ~1 | ~1 | 0.5 | 
B2 |  |  |  | ≥ 1.5
B3 |  |  | 2.5 | 
